Assay: soluble on expression in E. coli; label from the status in PepcDB or PDB records

| Sequence | soluble on expression in E. coli |
| --- | --- |
| SHPNQNDKIVVGLDIGTTKICAIVGRKNEYGKLEILGIGKAVSEGVIRGMVTNINLTVTAIEKAIKEASDQSGIDIGVVNVGIAGQHIKSSVHHHGINRPGGDEEISVDDVNRLTADMYRTVMPFGN | not soluble |
| HGGEAHMVPMDKTLKEFGADVQWDDYAQLFTLIKDGAYVKVKPGAQTAIVNGQPLALQVPVVMKDNKAWVSDTFINDVFQSGLDQTFQVEKRPHPLNALTADEIKQAVEIVKASADFKPNTRFTEISLLPPDKEAVWAFALENKPVDQPRKADVIMLDGKHIIEAVVDLQNNKLLSWQPIKDAHGMVLLDDFASVQNIINNSEEFAAAVKKRGITDAKKVITTPLTVGYFDGKDGLKQDARLLKVISYLDVGDGNYWAHPIENLVAVVDLEQKKIVKIEEGPVVPVPMTARPFDGRDRVAPAVKPMQIIEPEGKNYTITGDMIHWRNWDFHLSMNSRVGPMISTVTYNDNGTKRKVMYEGSLGGMIVPYGDPDIGWYFKAYLDSGDYGMGTLTSPIARGKDAPSNAVLLNETIADYTGVPMEIPRAIAVFERYAGPEYKHQEMGQPNVSTERRELVVRWISTVGNYDYIFDWIFHENGTIGIDAGATGIEAVKGVKAKTMHDETAKDDTRYGTLIDHNIVGTTHQHIYNFRLDLDVDGENNSLVAMDPVVKPNTAGGPRTSTMQVNQYNIGNEQDAAQKFDPGTIRLLSNPNKENRMGNPVSYQIIPYAGGTHPVAKGAQFAPDEWIYHRLSFMDKQLWVTRYHPGERFPEGKYPNRSTHDTGLGQYSKDNESLDNTDAVVWMTTGTTHVARAEEWPIMPTEWVHTLLKPWNFFDETPTLGALKKDK | soluble |
| MRNIYDLANELERGIRALPEYKNLVEKKEAIATDAEASALFKEFTDFQEDFYAKMQAGTMPTAEEQAAVQELGQKVEANALLKEYLTAQQSLSVYLNDIERIIFKPLQELNN | not soluble |
| MINRRYELFKDVSDADWNDWRWQVRNRIETVEELKKYIPLTKEEEEGVAQCVKSLRMAITPYYLSLIDPNDPNDPVRKQAIPTALELNKAAADLEDPLHEDTDSPVPGLTHRYPDRVLLLITDMCSMYCRHCTRRRFAGQSDDSMPMERIDKAIDYIRNTPQVRDVLLSGGDALLVSDETLEYIIAKLREIPHVEIVRIGSRTPVVLPQRITPELVNMLKKYHPVWLNTHFNHPNEITEESTRACQLLADAGVPLGNQSVLLRGVNDCVHVMKELVNKLVKIRVRPYYIYQCDLSLGLEHFRTPVSKGIEIIEGLRGHTSGYCVPTFVVDAPGGGGKTPVMPNYVISQSHDKVILRNFEGVITTYSEPINYTPGCNCDVCTGKKKVHKVGVAGLLNGEGMALEPVGLERNKRHVQE | soluble |
| MGSDKIHHHHHHMTSANIQMAVYCFDVINAQLNREKEPPVPKEIPNVKLPLFVTWKKGHQHDLRGCIGTFSDLRLGEGLNEYAKTSAFHDSRFKPISREEVPSLQCGVSLLINFEPIHNFRDWTIGRHGVRMNFDDGHRNRSAVFLPEVAQEQGWNHVETIDHLIRKSGYGGHINDALRSALRIVRFQSSKLVLDYKDYVNYKQSHGLPLPR | not soluble |
| MASPSKAVIVPGNGGGDVTTHGWYGWVKKELEKIPGFQCLAKNMPDPITARESIWLPFMETELHCDEKTIIIGHSSGAIAAMRYAETHRVYAIVLVSAYTSDLGDENERASGYFTRPWQWEKIKANCPYIVQFGSTDDPFLPWKEQQEVADRLETKLHKFTDCGHFQNTEFHELITVVKSLLKVPALEHHHHHH | soluble |
| DNPLESPPPEIVKQGKEAVRQYFQSIEEARSKGEALVHLQEIKVHLIGDGMAGKTSLLKQLIGETFDPKESQTHGLNVVTKQAPNIKGLENDDELKECLFHFWDFGGQEIMHASHQFFMTRSSVYMLLLDSRTDSNKHYWLRHIEKYGGKSPVIVVMNKIDENPSYNIEQKKINERFPAIENRFHRISCKNGDGVESIAKSLKSAVLHPDSIYGTPLAPSWIKVKEKLVEATTAQRYLNRTEVEKICNDSGITDPGERKTLLGYLNNLGIVLYFEALDLSEIYVLDPHWVTIGVYRIINSSKTKNGHLNTSALGYILNEEQIRCDEYDPAKNNKFTYTLLEQRYLLDIMKQFELCYDEGKGLFIIPSNLPTQIDNEPEITEGEPLRFIMKYDYLPSTIIPRLMIAMQHQILDRMQWRYGMVLKSQDHEGALAKVVAETKDSTITIAIQGEPRCKREYLSIIWYEIKKINANFTNLDVKEFIPLPGHPDELVEYKELLGLEKMGRDRYVSGKLEKVFSVSKMLDSVISKEERNKER | soluble |
| MQGVLAGLPSGIPGIGLEIEGAVQHAPQPGRHSIRCSLKVNHRIDERAQYHLFCTSKSANTTCPKGPSRVLCRDIFDIFDYRNFSMPRANEIKKGMVLNYNGKLLLAKDIDIQSPTARGAATLYKMRFSDVRTGLKVEERFKGDDIVDTVTLTRRYVDFSYVDGNEYVFMDKEDYTPYTFTKDQIEEELLFMPEGGMPDMQVLTWDGQLLALELPQTVDLEIVETAPGIKGASASARNKPATLSTGLVIQVPEYLSPGEKIRIHIEERRYMGRAD | not soluble |
| TPYDPLTLWTTPDPPPNCSLIQELDAKLTLCLTKNGSIVNGIVSLVGVKGNLLNIQSTTTTVGVHLVFDEQGRLITSTPTALVPQASWGYRQGQSVSTNTVTNGLGFMPNVSAYPRPNASEAKSQMVSLTYLQGDTSKPITMKVAFNGITSLNGYSLTFMWSGLSNYINQPFSTPSCSFSYITQE | soluble |
| MGHHHHHHSHMCGKFTLFSEFDDIIEQFNIDQFLPEGEYHPSYNVAPSQNILTIINDGSNNRLGKLRWGLIPPCAKDEKIGYKMINARAETLAEKPSFRKPLGSKRCIIPADSFYEWKRLDPKTKIPMRIKLKSSNLFAFAGLYEKWNTLEGNLLYTCTIITIKPSELMEDIHDRMPVILTDENKKEWLNPKNTDPDYLQSLLLPYDADDMEAYQVSSLVNSPELIESH | soluble |
| MICPRCADAHIELMATSPVKGVWTVYQCQHCLYTWRDTEPLRRTSREHYPQAFRMTQKDIDDAPMVPSIPPLLAEDKR | not soluble |
| MSSDVRFTDFKSDKQPTWCPGCGDFGTMNGMMKALAETGNDPDNTFIVAGIGCSGKIGTYMHSYALHGVHGRALPVGIGVKMANPDLEVMVSGGDGDGYSIGAGHFIHAVRRNVDMSYVVMDNRIYGLTKGQASPTSREDFETSTSPDGPNQPPVNPKALALASGATFIAQSFSSNAQRHAEIVQKAVEHDGFGFVNVYSPCVTFNDVDTYDYFRDAIVDLDETDHDPADRDQAKDKILESEKEYMGVLYQDEDSVPFEEREGVEGSMAEIPDGAPEGAMDLVREFY | not soluble |
| MSMSSMSSPSSAVCSPDHFSPSDHLCYVQCNFCQTILAVNVPYTSLFKTVTVRCGCCTNLLSVNMRSYVLPASNQLQLQLGPHSYFNPQDILEELRDAPSNMNMMMMNQHPTMNDIPSFMDLHQQHEIPKAPPVNRPPEKRQRVPSAYNRFIKEEIQRIKAGNPDISHREAFSAAAKNWAHFPHIHFGLVPDNQPVKKTNMPQQEGEDNMVMKEGFYAPAAANVGVTPY | soluble |
| MKLESLVEEARQCQDRTVAVAAAEDEEVIEAVAMALEHRLGRFVLYGDRERLGRLLKEKGCARFSDVDVVHANSIGQAAELAVRAVHLNEADALMKGHVPTATLLKAVLNKEYGLRTGKVLSHVAVFEVPEFDRFVIVTDAAMNIAPDLEQKAQIVNNAVSIARSIGIERPKVAALAAVETVNPAMPATVDAAALAMMQKRGQIEHCLLDGPLALDNAVSLAAAKHKRIESEVAGQADILLVPDIESGNMLYKSLVYFANARVGAVIAGAKAPIVLTSRADSAESKLYSLALAICSAAK | not soluble |
| SLSDTLNSLQLGERPEGRTLLTASWVVGHKDGSHRLLKNGEVVFENGEILFVGHGFPGEVARRIDFGNALVSPGLIDLDALSDLDTTILGIDHHPGWAKGRVWPRSYVEAGPYEMYSAEELAFQKRFAFGQLLLNGITTAAPIASLFYRAWGETVAEFEAAADAAGELGLRVYLSPAFRSGGMVLEEPGRMFPVFDEERGFQGLKEAIAFIEKQSGRHGDLVRGMLAPDRVETSTLGLIERTDAAARELGCKFRLHMAQGVMEVDTVRKLHGSTAPVWLAKAGLLSERLIAPHATNATEEDLALYAENGVSIVHCPLVSSRGGSTLSSFSSCRKRGINIAMGTDTAPADMFMNLLVGLITCRINDGAPDQIRCADLFDAATLGGARALGRSDLGHLSSGARADIAVFDLDDAVMAPSVDPITTLVTGGSGKVTRAVFVDGRLSMRERQVAHIDMRRAREQAQAQFDRLIAKYPERSWANPPVSEIFPPSYQVEVAQHG | not soluble |
| MAHHHHHHMSIYCRLASPPVFLRALHTVSVSRDGWATVVFTDSHVVLHVEGTDENMTATCTLPKNLFAEYAVVETRFALHIPTLIDALLMLGPSVATASTRAVLAYPTDDAKLLVELTPTDRVAGGGSCGGFSGGGPMTQSDLGV | soluble |
| MGSDKIHHHHHHMRKAERLNDMMLFLNDKNSFQLSDIMAKYGVSRSTAIRDIQSLEEIGMPIYSERGRNGHYRVLRNRLLSPIVFNIDEVFALYFSMLTLKAYETTPFHLSVEKLKTKFERCLSAEKIEMLRKIEEVFSLGYIKHNNQCEFLDVILQFTMEEKVCQINYDNNGTEKTYIVQFYNISSAYGQWYVTSYNFETKRMQVFRCDKILALKENDTFEAKKMEELKGVADSFNKKADVTTFEVEIASNGVDLFFKENYPSMKLRQQEGRNCIHGFYHKGEERFIINYLLGYGEKIIAIQPDSLRDMLLNELDTIKKHMQNLSS | not soluble |
| MNRRDFLKTAGLTGIALGLPGCARSLPFGRDVFPDFGDDARPYLGLATSLREEHDYEARVEGTIPAGLRGTLYRNGPALFDRGGMRKRTLLDGDGMVQAFRFGDRGIRYANRFVRTRKFVEEEAAGRFLHPTWSTQAPGGIWTNVWPTERLLSQAGITVFPWRGRLYAFDESSFPYELDPDTLATVGETTFGLPRDLTTYSAHGKFDPVTGEWLHFGIRYGPRTFVHLTTFNADGTLRRHRALELPRAIYMHDWFVTERHVVFHLHPVEIAYWPFLLGIRSMAESLRWRPERGTILMVAERDGEAPPRLVETEACYLWHTFNAWEERGKITADFVGYRNPDHFISDDPVITAVMLGRRGTYSYPGEVMRYRIDPARGTAAREVLHQGSCEWPRIDERLRCRPHRTGYMLRCLPGEFFWSIVMGLDPVTGRTDEYSFGRGVYCTEPVFAPRPDTLAGGPGWLLVELYDSRTRTSSLAILDADRIADGPLALVRLTHHVPFSYHGWWQPASLEHHHHHH | not soluble |
| MSLEDVIEKLRELNEPVPVPLELPEEELLVEIEEELLIGIPAEFREFLLLVSDVVYGRLEPVTVTDPHSHTYLPEVAATAWDLGVPRELIPLCEDDGSYYCVAEDGEVVLWADGDLTDESWDSVWVWARDVWLESEGHHHHHH | soluble |
| MSFLQHYKSGNLVLPSALLFHYKDIFSNADDFLVWQFFYFQNTTKMEDIATSQIATAIGKTVPEVNRSVSNLISQELLDMKTIELDGESEVLFDATLALKKLDDLLTAADETTVSSSKGISNALKDLVEDFERELGRMLSPFELEDLQKTVSDDKTDPDLVRSALREAVFNGKTNWNYIQAILRNWRHEGISTLRQVEERRKEREQANPANVTVSDDFLSAMNLWSDSDAR | not soluble |
| MSDPDLELASRREIYQRIADTPGVHFRALLDELKYAQGTLQYQLRWLADKGLIDVSDDGKYTRYYPAAEFDEADRTVMNALRREYSRRILAHLLTDSPLSTTELSERLDKAQSTVSWHLSKLAEADLVTKERDGRSVVYEVSDPDRVKYLYTVHRRSFTDKVVDRILGLWDSY | not soluble |
| MESAGFHYKLDIPAGTPDCAIVLLHGSGRTEDDLISFGRAVFPTGALYAPRGAVAWENGFAFFRRKPDRELDIDDLKHQATRLCHFVAFVFQQTGRRPILVGYSNGAIIAAETICQAHHLSKGAILLRPLSPRKDQSLPNLAGYPVLLLAGASDDRRHPSDAPHLSEQLTSAGADAVLETINTGHGWAEDAADERLSRQWLARLPIA | not soluble |

Source: the DeepSol protein solubility set
